The target in the assay is CC12.1 (human). The experiment in a line: SPR.

pKd: −log10 of the molar value.

CC12.1 (human), sequence (heavy, as listed by the source, chain 1 of 2): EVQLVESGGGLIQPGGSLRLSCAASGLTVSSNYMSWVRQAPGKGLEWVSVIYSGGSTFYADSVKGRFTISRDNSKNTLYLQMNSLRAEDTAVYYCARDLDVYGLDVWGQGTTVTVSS
CC12.1 (human), sequence (light, as listed by the source, chain 2 of 2): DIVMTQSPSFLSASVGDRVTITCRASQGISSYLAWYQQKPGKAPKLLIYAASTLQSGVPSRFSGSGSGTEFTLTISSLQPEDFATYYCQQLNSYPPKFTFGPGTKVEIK

By pKd is commonly meant the Kd on a negative log10 scale, so that one unit is a factor of ten. Higher therefore signals a small Kd. As for “SARS-CoV-2 RBD Alpha (B.1.1.7) (from UniProt P0DTC2) (domain or fragment)”, the pKd was 7.84.

(Values after article PMC9367177.)
